Source: the DeepSol protein solubility set

Assay: soluble on expression in E. coli; label from the status in PepcDB or PDB records
In the case of “MTERLLVGVIVGSHGVRGLVRVKSFTQDEMALCDYGPLSDETGTRRFAVEVRNQAKGVVICQIPGVSDRTAADALKGTRLFLDRAALPADALEEDEYYHADLIGLPVDLVDGGRLGVVHSVHDFGAGDMLEVTLAQGRRSVLLPFTKAVVPLVDVKAGRLVADPPLGLLDDTRPPAGVEGEVEEDPGVGIDEDGDGKGGASLEHHHHHH”, the “soluble on expression in E. coli” value is reported as “soluble”.
In the case of “MTKTEGKTASAAVKDILLSNPDGLREVIRTVMQEVLEAEMDEALGAAKGERTPERLGYRSGHYGRTLITRVGKLELRVPQDRSGHFSTELFERYQRSERALVATLAEMYVQGVSTRKVKAITEELCGHAFSASSISAINKRLDESLKAFAERSLEEPFAYLILDARYEKVREAGVVMSQAVLIAVGIDWDGRRQILSVEMAGRESRSAWKDFLVRLKGRGLKGVELVVSDDHAGLVAAIGEVIPEAAWQRCYVHFLRNALDHLPRKHGDDCLQELRWLYDRRDLDEAKADLAAWLGKWSVRYPRLTSWVEETIEQTLTFFRLPRQHHKHLKSTNMLERLNEEIRRRTYVVRIFPNTESCLRLVRALAVETHENWMEANRYINMDDLREHKKLALRQAA”, the “soluble on expression in E. coli” value is reported as “not soluble”.
In the case of “MYQIISDSACDLTELYVKKHNIEIVPLTASLDGETYLKDKTEINRKDFYTTMVENPDIFPKTSLPSVESYETVFRKYAEQNIPVVCFTISIHLSGSYNSASMAKDVVEEDYPDAKIVVLDSQQDTVSQALIIDQVVRMQNDGIPFDTMIENTKKLMGTARIFFTVGSLDYLRIGGRIGKMAISATGKLGIKPIIILKDGEVNLGGVGRNRGKLKKNLIQIADKYLTENGKDNFVVSIGYGYDAIEGVAFKDEVEAGLGVKLNGDTNVEIGVITAVHTGPHAIGIGVIQKYETLK”, the “soluble on expression in E. coli” value is reported as “not soluble”.
With “MTLLRTTLLSSLLATVVLGASAAPRTEVIPLNYRTADDVMAVAQSVIGSEGKVTAYGNQLIVNAEPAKIRELQSVLQQIDSRPHRLLITVDTSENLQQDSRGYSVDGSASAGNIEIQSGRGEVNGKDRVRIIRRSTDSRSGGSQQVQATEGYPALIQVGQSVPITSTATGPYGQIYSQTEYRNVNRGFYVTATLTGNLVHVTISSSNDRLSQSHPGVIDTQSTDTRVSGKLGEWITLGGVSEQNQADQRGFVRRYSTQGRDDTSLRLKVETLDLEHHHHHH” the “soluble on expression in E. coli” value was “not soluble”.
In the case of “MAKKTSSKGKLPPGPFPLPIIGNLFQLELKNIPKSFTRLAQRFGPVFTLYVGSQRMVVMHGYKAVKEALLDYKDEFSGRGDLPAFHAHRDRGIIFNNGPTWKDIRRFSLTTLRNYGMGKQGNESRIQREAHFLLEALRKTQGQPFDPTFLIGCAPCNVIADILFRKHFDYNDEKFLRLMYLFNENFHLLSTPWLQLYNNFPSFLHYLPGSHRKVIKNVAEVKEYVSERVKEHHQSLDPNCPRDLTDCLLVEMEKEKHSAERLYTMDGITVTVADLFFAGTETTSTTLRYGLLILMKYPEIEEKLHEEIDRVIGPSRIPAIKDRQEMPYMDAVVHEIQRFITLVPSNLPHEATRDTIFRGYLIPKGTVVVPTLDSVLYDNQEFPDPEKFKPEHFLNENGKFKYSDYFKPFSTGKRVCAGEGLARMELFLLLCAILQHFNLKPLVDPKDIDLSPIHIGFGCIPPRYKLCVIPRSHHHH”, the “soluble on expression in E. coli” value is reported as “soluble”.
For “MQAVGLITEYNPLHNGHRYHLRQAQQLTNADCVIVVMSGDWLQRGEPAILDKWTRAKLALENGADLVIELPVFFATQPAHLFARGGIELLSALDCTSVVFGAEHPELDFQRLATAIAARQGSFTHYNATFATQFNAALQAATGVTLTAANDMLSFCYYAANQTLAHPMQLLPIKRRQADHATTTIAADSRYASGTAVRQAALAQDWAALKPVVPADTFTALTTQRLQ”, the “soluble on expression in E. coli” value was “not soluble”.
For “MGSDKIHHHHHHMAPEDWLRAQMQGEIVALVHSHPGGLPWLSEADRRLQVQSDLPWWLVCRGTIHKFRCVPHLTGRRFEHGVTDCYTLFRDAYHLAGIEMPDFHRGDDWWRHGQNLYLDNLEATGLYQVPLSSAQPGDVLLCCFGSSVPNHAAIYCGDGELLHHIPEQLSKRERYTDKWQRRTHSLWRHREWHASAFTGICNDLAAASTFV”, the “soluble on expression in E. coli” value was “not soluble”.
With “MNGNHSAPAIAIAVIDGCDGLWREVLLGIEEEGIPFRLQHHPAGEVVDSAWQAARSSPLLVGIACDRHMLVVHYKNLPASAPLFTLMHHQDSQAHRNTGNNAARLVKGIPFRDLNSEATGEQQDE” the “soluble on expression in E. coli” value was “soluble”.
In the case of “MGSDKIHHHHHHMSFFKTPLIGLKADSFRHPLDLEATKTLKQIPGIDMLVRNWLGPMAEQVFYVENIASSILVGEKQLPDLYKLLLDACEILDIEPPQLYVRQHPAPNAYTFAVRGKQPFVVLHTSLIDILTPEEIQAVIAHELGHLKCDHSVYLTPVNLLILAAAIVPNVGTFVAQAIQAQLLEWVRCAEFTCDRAALLATQDPKVVMSVLMKLAGGSPTLAPQLNLDAFVAQARAYDDISKTELGEMVKTARTAQLTHPVPVLRAREIDRWASSTEYQSLIQSHGLKSTSKEVAPKGGWRNW”, the “soluble on expression in E. coli” value is reported as “not soluble”.
With “EAQTRVKLNFLDQIAKYWELQGSTLKIPHVERKILDLFQLNKLVAEEGGFAVVCKDRKWTKIATKMGFAPGKAVGSHIRGHYERILNPYNLFLSGDSLRCLQKPNLTSDTKDKEY” the “soluble on expression in E. coli” value was “soluble”.
With “MGSDKIHHHHHHMAVRIVSRQPLTKGWSTDQKYKVQLEDGRLGLLRIAERPAYEAKRLEFQLVENLFGLGLPVAEPLSFWADDLSVYTLYEWVEGQDMNEVATSLSDSVLYDLGCQSGKFLRTLHALPIDQSQRDWNSFYQVKIDNKLAAYQAASHSYPTGPAMIDFVQANRHLLEGRPIAYHHGDFHTGNFLLGPDGKLKILDFDRYDIGDPWEEFNRLIFTADLSPAFARGQVDAYFDGAIPEEFWKLMALYVTVNCLAALSWAEQVDSEQIPMMKLQAQKISEWYEYFNHHLPKWYM” the “soluble on expression in E. coli” value was “not soluble”.
With “MSTKEIICTLKGQFFLSPREEKFLRLLEEMGIPEEDIQEGIRECLKSVSPKKRKNFPLFKCFSKILEVNKVRALERGKREHLDWKRVFERKVSVVKHLLDFNYTEPKTEEEAEKTLQEIERKIFKKLWENLDKERKREIYNKYKEVKEDEELFKELIKHELRKIFQIPVLSLYVD” the “soluble on expression in E. coli” value was “not soluble”.
With “MKKEKAIVVFSGGQDSTTCLLWALKEFEEVETVTFHYNQRHSQEVEVAKSIAEKLGVKNHLLDMSLLNQLAPNALTRNDIEIEVKDGELPSTFVPGRNLVFLSFASILAYQIGARHIITGVCETDFSGYPDCRDEFVKSCNVTVNLAMEKPFVIHTPLMWLNKAETWKLADELGALDFVKNNTLTCYNGIIADGCGECPACHLRSKGYEEYMVMKGERA” the “soluble on expression in E. coli” value was “soluble”.
In the case of “MSGTKVPSLPKGKEKPCVVTFATQSDRSNEPPPQPRVRKVTTIINTLGVVVRNTTTEIGVWVFTSCVEVSFPRSNSPIFSNFTLGTWMIVGLYPDATVASCSPWPLILKAYEMSVSYGTVFMKRKASELCHEKTVLYSEVVVPLVNPYSNMSYFERDPHLTAELYMIPGFGRVLGSSAYRQYLEDNRDNVSFIVQYCGGSLRGCSWIMSVVDGKAQTDGEFSDKDLREIAEFIRERHNKENESPPLPSNSIARHAGFVTEVFPQKNYLYCWSPQVSLEADHTAKFPQPPKHREVDSPMLSPLVGQWIQFDVQSKDLDKYMSTRSGYRLSIQEYLPINSPCGVGVVQCGKIVRVMISCILVKSTDHPMLFELQMFGPVIDKKSSLISGAFMQIVLEKTSSRIRRMSGVCWRVIYSLIVSGAENMVENSQSVRIEAISQRDAMETSHIIPIEKRTITNNTGVTTLKYQQPHQNPHYQEQRRDYYMGNNIQIQTAYNSTQLRKYQPKPKKFSSYTGESLEGHALVEKIMAHAKTGILWFFDNYNSSVHFIFDDFELNVGDYAYVKLIQKKEETAHLQFRWKWISGTKKLSPFNCRIDLFQLFIEEQVSYKSKDMLNRNTYTSKNFPIIFDADGIIKNPIPGAIYCVVILRKKIQVTQTESPTHKYQWIIDSAQSNPFIITEYYNPHNAFNRSFIASKQFSSSAALSTDSKKGSSGSEKSSTSPPLKSLTPPSDE”, the “soluble on expression in E. coli” value is reported as “not soluble”.
For “MSLKLLIEEFIPVEEISEEAKKEKLGNAKPPIFSLHYWWARKPLITARAAVLGALISKENLPMIVGNGDLKTNLLRILRIPKDINEGPRAHTQDPPAEYLKEAIIKTWGEIPTVLDPFAGGGSIPFEALRLGCNAVAVDYNPVAYLILKETLEYPKKYGMKLILEGHHHHHH”, the “soluble on expression in E. coli” value was “not soluble”.
